The results in this text go back to paper PMC7788135, “OsMS188 Is a Key Regulator of Tapetum Development and Sporopollenin Synthesis in Rice”.

One data set addresses T1, MBP-OsMS188 (Oryza sativa (rice; Nipponbare?), UniProt Q7XQN1 1-372).
T1 sequence: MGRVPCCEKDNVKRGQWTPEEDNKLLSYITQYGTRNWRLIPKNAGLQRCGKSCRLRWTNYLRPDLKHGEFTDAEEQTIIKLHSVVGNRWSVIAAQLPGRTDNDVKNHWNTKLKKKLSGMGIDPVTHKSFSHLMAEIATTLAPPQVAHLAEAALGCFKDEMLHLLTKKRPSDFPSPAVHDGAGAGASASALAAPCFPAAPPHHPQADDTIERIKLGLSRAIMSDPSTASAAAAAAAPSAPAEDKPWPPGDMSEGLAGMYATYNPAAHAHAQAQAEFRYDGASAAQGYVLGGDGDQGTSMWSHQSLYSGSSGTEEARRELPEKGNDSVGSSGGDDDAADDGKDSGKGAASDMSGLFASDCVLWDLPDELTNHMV
Put plainly: EMSA; unlabelled probe competes; LightShift Chemiluminescent EMSA Kit (Thermo); buffer, salt, pH and temperature not stated. The following applies: protein: recombinant; label: biotin; blunt.

For another data set, the target named is MBP-TDR (Oryza sativa (rice; Nipponbare?), UniProt Q6YUS3 1-552). Put plainly: EMSA; unlabelled probe (5- to 200-fold) competes; LightShift Chemiluminescent EMSA Kit (Thermo); buffer, salt, pH and temperature not stated.
The next data set has as its target T2, MBP-bHLH142 (Oryza sativa (rice; Nipponbare?), UniProt Q5JNS0 1-379).
T2 sequence: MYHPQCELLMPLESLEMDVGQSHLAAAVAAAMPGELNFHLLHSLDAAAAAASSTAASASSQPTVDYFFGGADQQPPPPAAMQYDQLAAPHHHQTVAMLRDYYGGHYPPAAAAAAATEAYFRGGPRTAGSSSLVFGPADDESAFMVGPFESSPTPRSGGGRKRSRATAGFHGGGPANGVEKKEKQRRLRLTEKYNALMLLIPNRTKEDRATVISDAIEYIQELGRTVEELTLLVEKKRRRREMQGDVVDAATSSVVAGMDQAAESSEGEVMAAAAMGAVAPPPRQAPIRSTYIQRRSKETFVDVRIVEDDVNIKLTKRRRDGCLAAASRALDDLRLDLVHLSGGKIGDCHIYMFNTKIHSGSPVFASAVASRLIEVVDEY
Put plainly: EMSA; shifted band not reduced by unlabelled probe; authors conclude no direct binding; LightShift Chemiluminescent EMSA Kit (Thermo); buffer, salt, pH and temperature not stated. The settings on record: protein: recombinant; chain copies: 2; label: biotin; blunt.

The next data set deals with T3, MBP-EAT1 (Oryza sativa (rice; Nipponbare?), UniProt Q7X8R0 1-464).
T3 sequence: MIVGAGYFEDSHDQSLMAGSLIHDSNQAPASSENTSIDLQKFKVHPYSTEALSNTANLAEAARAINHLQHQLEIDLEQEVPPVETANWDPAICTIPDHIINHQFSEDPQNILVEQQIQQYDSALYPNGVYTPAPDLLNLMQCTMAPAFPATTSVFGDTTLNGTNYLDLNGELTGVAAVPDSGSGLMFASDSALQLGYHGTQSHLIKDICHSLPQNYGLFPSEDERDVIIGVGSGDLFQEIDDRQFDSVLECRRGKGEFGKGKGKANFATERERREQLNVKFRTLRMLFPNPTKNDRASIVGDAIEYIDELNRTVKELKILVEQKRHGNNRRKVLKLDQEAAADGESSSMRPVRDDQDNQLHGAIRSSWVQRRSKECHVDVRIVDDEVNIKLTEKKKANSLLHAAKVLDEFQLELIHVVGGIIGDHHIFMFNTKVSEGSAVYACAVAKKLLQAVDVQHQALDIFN
The description is as above. The settings on record: protein: recombinant; chain copies: 2; label: biotin; blunt.

B1: OsPKS2 promoter probe (dsDNA)
DNA 1: TACCTGCTCTCCACCAACCATTCTTTCCATGCATTCGTTGCCTCTCAACTGCACCAGCT
DNA 2: AGCTGGTGCAGTTGAGAGGCAACGAATGCATGGAAAGAATGGTTGGTGGAGAGCAGGTA
For B1, the binding result with MBP-OsMS188 was “binds”.

B2: CYP704B2 promoter probe (dsDNA)
DNA 1: AATAGCCTATTCAGATGAAGTAGAATTCAGGTGAAGTAGAAACCAACTACTTTGGGTTC
DNA 2: GAACCCAAAGTAGTTGGTTTCTACTTCACCTGAATTCTACTTCATCTGAATAGGCTATT
As to B2, the binding result with MBP-OsMS188 is “binds”.

B3: OsMS188 promoter probe (dsDNA)
DNA 1: GAGAATGCATTTGGTGGTCGTGTGTTGTTTGTAACAACTGGGGAGC
DNA 2: GCTCCCCAGTTGTTACAAACAACACACGACCACCAAATGCATTCTC
On to B3, for which the binding result with MBP-TDR was “binds”; in the data set with MBP-bHLH142, “no binding”; in the data set with MBP-EAT1 it was “no binding”.

B4: OsPKS1 promoter probe (dsDNA)
DNA 1: GCAAAAATGCAGGGTAAAACCAAAGAAGGGTGGAAGGAATGAACCTTCTGCTCCCCCC
DNA 2: GGGGGGAGCAGAAGGTTCATTCCTTCCACCCTTCTTTGGTTTTACCCTGCATTTTTGC
As to B4, in the data set with MBP-OsMS188, the binding result is “binds”.

B5: CYP703A3 promoter probe (dsDNA)
DNA 1: GATATCACATGACTTGTACATAATGCCTAAAATGTGGATATCTGACCAGGTGCTTGGTG
DNA 2: CACCAAGCACCTGGTCAGATATCCACATTTTAGGCATTATGTACAAGTCATGTGATATC
Turning to B5, the binding result with MBP-OsMS188 is recorded as “binds”.

B6: ABCG15 promoter probe (dsDNA)
DNA 1: AGTCTGCTTGGCGCTCTCTCTCTGAACCTGTCACTCTTTTTTTCTGTGTCT
DNA 2: AGACACAGAAAAAAAGAGTGACAGGTTCAGAGAGAGAGCGCCAAGCAGACT
With B6, the binding result with MBP-OsMS188 was “binds”.

B7: DPW promoter probe (dsDNA)
DNA 1: AGGGAACTGAATCTTTTGCATGAACCACTGCATTTCCAAGAAGTGCACGAGCTTTGCA
DNA 2: TGCAAAGCTCGTGCACTTCTTGGAAATGCAGTGGTTCATGCAAAAGATTCAGTTCCCT
For the molecule B7, in the data set with MBP-OsMS188, the binding result was “binds”.
